Measurements as given in PMC6555819, “Comprehensive study of nuclear receptor DNA binding provides a revised framework for understanding receptor specificity”.

B1: NRC3_wobSeed42_DR1_C19T_o1 (dsDNA)
DNA 1: GCTATACAGGGTCAAAGGTCAGAGTACGAATGTCGAGCGATTGACAGCGTAGAATGAAGG
DNA 2: CCTTCATTCTACGCTGTCAATCGCTCGACATTCGTACTCTGACCTTTGACCCTGTATAGC
B2: NRC3_wobSeed27_DR1_A12T_o1 (dsDNA)
DNA 1: GCACTCGGAGGTCAAAGGTCAGAGCTACGCCAGTGAGCGATTGACAGCGTAGAATGAAGG
DNA 2: CCTTCATTCTACGCTGTCAATCGCTCACTGGCGTAGCTCTGACCTTTGACCTCCGAGTGC

How the values were obtained:
[1] = target: PPARg:RXRa (Homo sapiens, UniProt P37231;P19793 full;full); assay: no ligand; PBM; 180 nM : 90 nM RXRa; PBS pH 7.4, 2% milk, 0.02% Triton X-100, 1 mM DTT, BSA, 0.4 mg/ml salmon testes DNA; settings: tags: His kept;His cleaved; copies: 1;1; label: surface-attached array probe
[2] = target: RXRa (Homo sapiens, UniProt P19793); assay: no ligand; PBM; 180 nM; PBS pH 7.4, 2% milk, 0.02% Triton X-100, 1 mM DTT, BSA, 0.4 mg/ml salmon testes DNA; settings: tags: His cleaved; chain copies: 2; label: surface-attached array probe
RXRa, sequence (P19793 whole entry): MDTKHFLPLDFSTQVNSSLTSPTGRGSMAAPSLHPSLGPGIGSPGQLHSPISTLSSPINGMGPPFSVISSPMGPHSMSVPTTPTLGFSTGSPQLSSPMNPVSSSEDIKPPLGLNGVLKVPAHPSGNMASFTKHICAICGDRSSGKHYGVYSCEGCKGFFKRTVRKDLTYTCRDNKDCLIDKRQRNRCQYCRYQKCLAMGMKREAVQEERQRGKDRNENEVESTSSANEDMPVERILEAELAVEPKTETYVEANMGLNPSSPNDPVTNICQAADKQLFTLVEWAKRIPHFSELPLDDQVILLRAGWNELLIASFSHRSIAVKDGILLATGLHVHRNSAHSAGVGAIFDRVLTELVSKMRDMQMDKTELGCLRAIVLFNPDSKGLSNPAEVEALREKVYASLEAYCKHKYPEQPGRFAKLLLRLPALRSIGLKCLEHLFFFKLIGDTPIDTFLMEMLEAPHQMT

[3] = target: LXRb:RXRa (Homo sapiens, UniProt P55055;P19793 full;full); assay: no ligand; PBM; 270 nM : 90 nM RXRa; PBS pH 7.4, 2% milk, 0.02% Triton X-100, 1 mM DTT, BSA, 0.4 mg/ml salmon testes DNA; settings: tags: His kept;His cleaved; copies: 1;1; label: surface-attached array probe
LXRb:RXRa, sequence (P55055 whole entry, chain 1 of 2): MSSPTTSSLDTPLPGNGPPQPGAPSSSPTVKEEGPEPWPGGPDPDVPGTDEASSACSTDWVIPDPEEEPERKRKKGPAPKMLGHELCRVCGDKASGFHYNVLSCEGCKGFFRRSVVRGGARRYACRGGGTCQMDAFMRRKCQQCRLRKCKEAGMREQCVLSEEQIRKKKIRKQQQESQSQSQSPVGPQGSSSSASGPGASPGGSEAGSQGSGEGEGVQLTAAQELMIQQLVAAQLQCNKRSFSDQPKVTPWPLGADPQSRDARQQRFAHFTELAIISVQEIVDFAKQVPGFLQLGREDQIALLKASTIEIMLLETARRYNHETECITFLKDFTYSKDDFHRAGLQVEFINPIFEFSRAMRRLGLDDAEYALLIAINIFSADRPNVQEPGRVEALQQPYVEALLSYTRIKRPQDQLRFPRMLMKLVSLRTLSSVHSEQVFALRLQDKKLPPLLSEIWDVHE
LXRb:RXRa, sequence (P19793 whole entry, chain 2 of 2): as the sequence (P19793 whole entry) above
Outline: (§1)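 Each nuclear receptor dimer, without ligand, was incubated for 1 h on custom Agilent 4×180K protein-binding microarrays. Binding was detected with antibodies against each partner (one per run), and scanned fluorescence was regression-normalized. The binding z-scores are referenced to random human genomic background probes.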

[4] = target: FXR:RXRa (Homo sapiens, UniProt Q96RI1;P19793 full;full); assay: as above; settings: tags: His kept;His cleaved; copies: 1;1; label: surface-attached array probe
Outline: as §1

[5] = target: PXR:RXRa (Homo sapiens, UniProt O75469;P19793 full;full); assay: as above; settings: tags: His kept;His cleaved; copies: 1;1; label: surface-attached array probe
Outline: as §1

[6] = target: PPARa:RXRa (Homo sapiens, UniProt Q07869;P19793 full;full); assay: as above; settings: tags: GST kept;His cleaved; copies: 1;1; label: surface-attached array probe
Outline: as §1

[7] = target: VDR:RXRa (Homo sapiens, UniProt P11473;P19793 full;full); assay: as above; settings: tags: His kept;His cleaved; copies: 1;1; label: surface-attached array probe
Outline: as §1

[8] = target: RARb:RXRa (Homo sapiens, UniProt P10826;P19793 full;full); assay: as above; settings: tags: His kept;His cleaved; copies: 1;1; label: surface-attached array probe
Outline: as §1

[9] = target: RARg:RXRa (Homo sapiens, UniProt P13631;P19793 full;full); assay: as above; settings: tags: His kept;His cleaved; copies: 1;1; label: surface-attached array probe
RARg:RXRa, sequence (P13631 whole entry, chain 1 of 2): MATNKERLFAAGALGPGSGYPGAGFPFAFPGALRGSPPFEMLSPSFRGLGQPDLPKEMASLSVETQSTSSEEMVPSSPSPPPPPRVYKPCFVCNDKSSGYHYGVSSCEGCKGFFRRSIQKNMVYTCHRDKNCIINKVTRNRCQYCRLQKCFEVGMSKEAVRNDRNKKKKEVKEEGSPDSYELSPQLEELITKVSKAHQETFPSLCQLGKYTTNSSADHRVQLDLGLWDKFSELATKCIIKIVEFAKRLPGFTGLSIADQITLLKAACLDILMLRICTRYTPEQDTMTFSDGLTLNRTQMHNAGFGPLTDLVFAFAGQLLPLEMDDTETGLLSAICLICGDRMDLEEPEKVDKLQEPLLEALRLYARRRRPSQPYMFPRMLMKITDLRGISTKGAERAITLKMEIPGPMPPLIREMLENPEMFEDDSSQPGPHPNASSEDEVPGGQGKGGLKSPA
RARg:RXRa, sequence (P19793 whole entry, chain 2 of 2): as the sequence (P19793 whole entry) above
Outline: as §1

[10] = target: RARa:RXRa (Homo sapiens, UniProt P10276;P19793 full;full); assay: as above; settings: tags: His kept;His cleaved; copies: 1;1; label: surface-attached array probe
RARa:RXRa, sequence (P10276 whole entry, chain 1 of 2): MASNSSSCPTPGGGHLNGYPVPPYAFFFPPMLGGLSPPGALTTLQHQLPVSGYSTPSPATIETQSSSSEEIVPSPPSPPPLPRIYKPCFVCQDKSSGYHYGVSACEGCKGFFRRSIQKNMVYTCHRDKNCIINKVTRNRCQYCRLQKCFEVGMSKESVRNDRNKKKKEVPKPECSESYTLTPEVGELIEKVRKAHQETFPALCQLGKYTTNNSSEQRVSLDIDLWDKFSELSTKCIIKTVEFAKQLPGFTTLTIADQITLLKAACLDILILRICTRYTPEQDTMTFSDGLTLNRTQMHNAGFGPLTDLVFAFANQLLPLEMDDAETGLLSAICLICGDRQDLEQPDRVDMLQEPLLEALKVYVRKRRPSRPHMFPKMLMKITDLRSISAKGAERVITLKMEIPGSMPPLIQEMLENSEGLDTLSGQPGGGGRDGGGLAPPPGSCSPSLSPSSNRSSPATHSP
RARa:RXRa, sequence (P19793 whole entry, chain 2 of 2): as the sequence (P19793 whole entry) above
Outline: as §1

[11] = target: LXRa:RXRa (Homo sapiens, UniProt Q13133;P19793 full;full); assay: as above; settings: tags: His kept;His cleaved; copies: 1;1; label: surface-attached array probe
Outline: as §1

[12] = target: THRa:RXRa (Homo sapiens, UniProt P10827;P19793 full;full); assay: no ligand; PBM; 90 nM : 90 nM RXRa; PBS pH 7.4, 2% milk, 0.02% Triton X-100, 1 mM DTT, BSA, 0.4 mg/ml salmon testes DNA; settings: tags: His kept;His cleaved; copies: 1;1; label: surface-attached array probe
THRa:RXRa, sequence (P10827 other isoform, or with tags, fused parts or gaps, chain 1 of 2): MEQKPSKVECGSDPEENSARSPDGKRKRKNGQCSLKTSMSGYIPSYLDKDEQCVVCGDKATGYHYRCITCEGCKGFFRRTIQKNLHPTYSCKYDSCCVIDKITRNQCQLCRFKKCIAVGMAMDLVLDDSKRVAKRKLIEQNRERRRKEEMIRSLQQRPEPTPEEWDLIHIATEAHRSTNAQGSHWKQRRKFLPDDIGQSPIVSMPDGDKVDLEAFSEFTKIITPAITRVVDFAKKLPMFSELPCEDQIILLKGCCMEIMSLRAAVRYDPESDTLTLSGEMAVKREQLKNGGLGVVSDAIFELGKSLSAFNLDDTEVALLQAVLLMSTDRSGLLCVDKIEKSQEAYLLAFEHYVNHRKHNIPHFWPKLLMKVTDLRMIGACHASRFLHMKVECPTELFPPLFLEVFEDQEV
THRa:RXRa, sequence (P19793 whole entry, chain 2 of 2): as the sequence (P19793 whole entry) above

| Binder | binding signal [1] | binding signal [2] | binding signal [3] | binding signal [4] | binding signal [5] | binding signal [6] | binding signal [7] | binding signal [8] | binding signal [9] | binding signal [10] | binding signal [11] | binding signal [12] |
| --- | --- | --- | --- | --- | --- | --- | --- | --- | --- | --- | --- | --- |
| B1 | 12.3 PBM z-score against 500 random probes | 10.7 PBM z-score against 500 random probes | 7.29 PBM z-score against 500 random probes | 8.5 PBM z-score against 500 random probes | 7.29 PBM z-score against 500 random probes | 7.46 PBM z-score against 500 random probes | 7.15 PBM z-score against 500 random probes | 5.62 PBM z-score against 500 random probes | 8.67 PBM z-score against 500 random probes | 9.11 PBM z-score against 500 random probes | 7.52 PBM z-score against 500 random probes | 4.83 PBM z-score against 500 random probes |
| B2 | 11.6 PBM z-score against 500 random probes | 10.9 PBM z-score against 500 random probes | 6.9 PBM z-score against 500 random probes | 8.54 PBM z-score against 500 random probes | 7.52 PBM z-score against 500 random probes | 7.2 PBM z-score against 500 random probes | 7.02 PBM z-score against 500 random probes | 5.85 PBM z-score against 500 random probes | 9.09 PBM z-score against 500 random probes | 9.37 PBM z-score against 500 random probes | 7.5 PBM z-score against 500 random probes | 4.83 PBM z-score against 500 random probes |
